Test system: S9.6 antibody (anti-DNA-RNA hybrid) (mouse)
Assay: SPR
Settings: single-cycle kinetics, pH 7.0, SPR: 10 mM HEPES pH 7.0, 15 mM MgCl2, 80 mM NaCl, S9.6 on CM5 chip, EMSA: 200 nM nucleic acid, 80 ug/mL S9.6, 30 min room temperature, 6% PAGE in 0.5X TBE

Sequence | Kd (ka 5.99e5 1/Ms, kd 1.74e-4 1/s) | Kd
AGTGAATTCTACCAGTGCCATAGAGGAGAGGAGAGGAGGGGAGGTTTACCTCCCCTCCTCTCCTCTCCCTTTGCCTCTCCTCTCCTCCCCTCCGT / UAUGGCACUGGUAGAAUUCACU [Switch A (30% TAT)/miR-183 hybrid] | 0.291 nM | 
AAGAAAAGAGAAGAAGAGAACACCTTCTCTTCTTCTCTTTTCTTAGACCCCTATCACGATTAGCATTAA / UUAAUGCUAAUCGUGAUAGGGGU [Switch B (70% TAT)/miR-155 hybrid] |  | 0.144 nM
